The text below walks through data of patent US10864269B2, “Therapeutic combinations comprising anti-CD73 antibodies and uses thereof” (MedImmune Limited, priority 2014, dated 2020).

The target in one assay is T1, human CD73 ECD (Homo sapiens, UniProt P21589).
T1 construct: made in house; host or cells: mammalian cells
T1 sequence (P21589 27-549 limits assumed): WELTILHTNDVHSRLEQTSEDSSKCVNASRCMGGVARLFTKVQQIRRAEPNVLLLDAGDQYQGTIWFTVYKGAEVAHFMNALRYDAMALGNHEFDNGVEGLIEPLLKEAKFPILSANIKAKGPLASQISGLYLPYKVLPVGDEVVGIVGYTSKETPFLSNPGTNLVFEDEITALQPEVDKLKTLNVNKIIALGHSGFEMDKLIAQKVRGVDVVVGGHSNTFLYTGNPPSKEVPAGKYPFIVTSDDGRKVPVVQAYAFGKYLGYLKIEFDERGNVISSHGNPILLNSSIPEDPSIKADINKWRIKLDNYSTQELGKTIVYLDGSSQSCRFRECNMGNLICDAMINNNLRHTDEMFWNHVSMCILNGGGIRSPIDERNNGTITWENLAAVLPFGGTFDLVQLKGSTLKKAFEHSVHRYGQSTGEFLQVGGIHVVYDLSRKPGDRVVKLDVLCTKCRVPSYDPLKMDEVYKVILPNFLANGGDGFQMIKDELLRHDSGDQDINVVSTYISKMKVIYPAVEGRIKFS
Description: Surface plasmon resonance (ProteOn), human CD73. The format is binding. The settings on record: SPR. The procedure: (§1) A ProteOn XPR36 instrument was used to characterize binding of MEDI9447 to human, murine, and cynomolgus CD73 ECD. MEDI9447 was affinity-captured using an anti-human Fc antibody. CD73 ECD was in the mobile phase. The association and dissociation of CD73 to MEDI9447 could be accurately described with the Langmuir 1:1 model.
(§2) The affinity of enhanced anti-CD73 antibodies (in IgG1-TM format) to human, murine, and cynomolgus CD73 was determined by flow cytometry and surface plasmon resonsance (SPR) (Table 13). The enhanced antibodies had pM affinity to cellular and recombinant CD73 from the three species.
For orientation: SPR reads the build-up and loss of mass on a sensor chip optically.

The next assay concerns the target T2, murine CD73 (Mus musculus, UniProt Q61503).
T2 sequence (Q61503 29-551): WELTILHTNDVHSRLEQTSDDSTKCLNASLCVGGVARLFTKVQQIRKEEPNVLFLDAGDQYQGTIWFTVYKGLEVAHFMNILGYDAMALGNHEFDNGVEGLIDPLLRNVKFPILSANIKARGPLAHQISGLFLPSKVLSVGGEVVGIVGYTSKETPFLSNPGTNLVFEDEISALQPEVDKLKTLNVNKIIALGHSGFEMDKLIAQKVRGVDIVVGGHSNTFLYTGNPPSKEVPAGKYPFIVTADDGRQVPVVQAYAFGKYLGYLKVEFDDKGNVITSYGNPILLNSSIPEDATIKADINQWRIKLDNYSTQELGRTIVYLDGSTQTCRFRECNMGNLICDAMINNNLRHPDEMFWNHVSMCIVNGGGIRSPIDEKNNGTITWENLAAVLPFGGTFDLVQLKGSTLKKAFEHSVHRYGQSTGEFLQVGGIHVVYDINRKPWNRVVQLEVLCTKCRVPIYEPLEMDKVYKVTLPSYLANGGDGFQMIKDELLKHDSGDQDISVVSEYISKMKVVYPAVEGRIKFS
Description: Solution binding, murine CD73. The following applies: as measured by solution binding.

Another assay concerns the target cynomolgus CD73. Description: Solution binding, cynomolgus CD73. The following applies: as measured by solution binding.
The target of assay [1] is T3, CD73 on the cell surface of MDA-MB-231 cells (Homo sapiens, UniProt P21589).
T3 construct: native CD73 expressed on human, murine, and cynomolgus monkey cell lines; endogenous in cells; host or cells: MDA-MB-231
T3 sequence (P21589 27-549): T1 sequence (P21589 27-549 limits assumed)
Description: Antibody-mediated internalization or shedding of CD73 by flow cytometry. The format is cell-based. The settings on record: for Percentage of CD73 remaining on the cell surface: 100 nM antibody, 37° C. The method, then: Antibody-mediated internalization or shedding of CD73 was assessed by flow cytometry. MDA-MB-231 cells were incubated in presence of 100 nM MEDI9447 or negative control antibody R347 in growth medium at 37° C. for 0-4 hours. Cells were washed and resuspended in ice-cold PBS. The presence of CD73 on the cell surface was detected by adding 10 nM DyLight488-labeled detection antibody. Cells were incubated for 15 minutes, washed and analyzed by flow cytometry. The detection antibody binds to an epitope of CD73 that is different from the MEDI9447 epitope and both antibodies simultaneously bind to CD73 without interference.

Another assay has as its system Cynomolgus CD73 ECD. Description: Surface plasmon resonance (ProteOn), cynomolgus CD73. The format is binding. The following applies: SPR. The method, then:
as §1, §2

The target in a further assay is T4, native CD73, 4T1 cells (Mus musculus, UniProt Q61503).
T4 construct: native CD73 expressed on human, murine, and cynomolgus monkey cell lines; endogenous in cells; host or cells: 4T1
T4 sequence (Q61503 29-551): T2 sequence (Q61503 29-551)
Description: Flow cytometry binding to native CD73, 4T1 cells. The following applies: as measured by flow cytometry; read-out: KD, CD73 on the surface of murine 3T1 cells. The procedure: (§3) Binding of MEDI9447 to native CD73 expressed on human, murine, and cynomolgus monkey cell lines was characterized by flow cytometry. The cells were incubated with various concentrations of MEDI9447 and antibody binding was monitored with and fluorophore-labeled anti-human Fc antibody. A plot of the median fluorescence intensity as a function of the MEDI9447 concentration was fitted nonlinearly using a one-site binding isotherm model to calculate the equilibrium dissociation constant.
as §2
(§4) All flow cytometry experiments were run at 4C and reagents were prepared in PBS/1% FBS buffer. 10,000 cells were incubated with test antibody in 50 uL volume for 4 hours. Cells were washed twice and incubated in 50 uL goat anti-human IgGFc-AlexaFluor647 conjugate for 15 minutes. Cells were washed, resuspended in buffer supplemented with Dapi, and analyzed on a flow cytometer. […] For the determination of KD values, a plot of the median fluorescence intensity as a function of test antibody concentration was fitted nonlinearly using a one site binding isotherm model.
On the technique in general: In flow cytometry, cells or beads pass a laser one at a time.

Another assay deals with T5, huCD73 (Homo sapiens, UniProt P21589).
T5 sequence (P21589 27-549): T1 sequence (P21589 27-549 limits assumed)
Description: Solution binding, human CD73. The following applies: as measured by solution binding.

For a further assay, the system named is native CD73, MK-1 cells. Description: Flow cytometry binding to native CD73, MK-1 cells. The settings on record: as measured by flow cytometry; read-out: KD, CD73 on the surface of cynomolgus MK-1 cells. The method, then:
as §3, §2, §4

Broadly, the Kd is the concentration at which binding is half-saturated. Take “MEDI9447: IgG1 with CD730010-derived VL of SEQ ID NO: 68 and VH of SEQ ID NO: 82”: the values for the kd with human CD73 ECD (Human CD73 ECD) and on Cynomolgus CD73 ECD were 1.06e-05 s⁻¹ and 1.76e-05 s⁻¹, respectively. For the same substance, the ka with human CD73 ECD (antibody captured, Human CD73 ECD in mobile phase) was 2.57e+06 M⁻¹ s⁻¹; in the assay with Cynomolgus CD73 ECD, 2.71e+06 M⁻¹ s⁻¹. The Kd with murine CD73 was about 130 pM; on cynomolgus CD73, about 90 pM; with native CD73, 4T1 cells, about 110 pM; with huCD73, about 80 pM; in the assay with native CD73, MK-1 cells, about 80 pM. Further, the “Percentage of CD73 remaining on the cell surface” value in assay [1] (0 h) worked out at 100%; in assay [1] (0.25 h) it was 90%; in assay [1] (0.5 h), 90%; in assay [1] (1 h), 87%; in assay [1] (2 h), 80%; in assay [1] (4 h), 73%. In addition, the “CD73 either internalized or shed upon antibody binding” value in assay [1] (4 hours incubation) is reported as 27%.
